The results in this text go back to patent US20150266977A1 (AbbVie / Abbott, published 2015).

Experiment in all cases: SPR
Assay [1] has as its target T1, recombinant rat sclerostin (rat, UniProt Q99P67 24-213, limits assumed).
T1 sequence (looked up): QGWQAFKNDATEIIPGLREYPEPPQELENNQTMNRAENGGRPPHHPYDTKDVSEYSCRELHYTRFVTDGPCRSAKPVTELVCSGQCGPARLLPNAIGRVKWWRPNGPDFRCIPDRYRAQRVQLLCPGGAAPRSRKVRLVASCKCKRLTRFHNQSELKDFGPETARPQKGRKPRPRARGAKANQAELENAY

The target of assay [2] is T2, recombinant mouse sclerostin (mouse, UniProt Q99P68 24-211).
T2 construct: also called ms sclerostin; murine sclerostin
T2 sequence (looked up): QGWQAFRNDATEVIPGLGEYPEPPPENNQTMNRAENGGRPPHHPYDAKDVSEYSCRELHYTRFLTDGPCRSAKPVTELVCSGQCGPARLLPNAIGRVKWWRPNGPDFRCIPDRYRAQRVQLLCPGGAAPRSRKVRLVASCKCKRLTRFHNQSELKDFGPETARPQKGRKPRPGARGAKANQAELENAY

Assay [3] has as its target T3, recombinant human sclerostin (human, UniProt Q9BQB4 24-213).
T3 construct: biotinylated in the ELISAs; also called hu sclerostin; hu scl
T3 sequence: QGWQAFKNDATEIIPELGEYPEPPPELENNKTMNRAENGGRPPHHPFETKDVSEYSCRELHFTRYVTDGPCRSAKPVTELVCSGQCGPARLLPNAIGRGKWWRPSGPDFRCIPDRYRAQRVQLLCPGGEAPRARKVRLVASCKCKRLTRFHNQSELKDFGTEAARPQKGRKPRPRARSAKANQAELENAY
Here is the method: (§1) Approximately 10,000 RU (or 3000 RU when CM3 chip was used) of goat anti-mouse or anti-human IgG (Fcγ) fragment specific polyclonal antibody (Pierce Biotechnology Inc, Rockford, Ill.) diluted in 10 mM sodium acetate (pH 4.5) was directly immobilized across a CM5 (or CM3) research grade biosensor chip using a standard amine coupling kit according to manufacturer's instructions and procedures at 15 μg/ml. Unreacted moieties on the biosensor surface were blocked with ethanolamine. Modified carboxymethyl dextran surface in flowcells 2, 3 and 4 were used as a reaction surface. Modified carboxymethyl dextran in flow cell 1 was used as the reference surface. Biaevaluation T100 software version 2.0.2, GE Healthcare Life Sciences was used to simultaneously fit association and dissociation phases of all injections (using 1:1 fit analysis with local Rmax). Purified antibodies were diluted in running buffer for capture across goat anti-mouse or anti-human IgG specific reaction surfaces. Antibodies to be captured as a ligand (1 μg/ml) were injected over reaction matrices at a flow rate of 10 μl/minute. The association and dissociation rate constants, kon (unit M-1 s-1) and koff (unit s-1) were determined under a continuous flow rate of 50 μl/minute. […] At the end of each cycle the surfaces were regenerated with 10 s injection of 50 mM NaOH or/and by 10 s injection of 10 mM Glycine pH1.5 at a flow rate of 100 μl/min. Instrument appropriate Biaevaluation software, GE Healthcare Life Sciences was used to simultaneously fit association and dissociation constants as well as KD (using 1:1 global fit analysis with local Rₘₐₓ). Binding was recorded as a function of time and kinetic rate constants are calculated. In this assay, on-rates as fast as 10⁷ M⁻¹ s⁻¹ and off-rates as slow as 10⁻⁶ s⁻¹ can be measured.

Assay [4] has as its target T4, recombinant cynomolgus monkey sclerostin (cynomolgus monkey).
T4 construct: also called cyno sclerostin; Cyno sclerostin
Here is the method:
as §1

B1: MSL10-AM1 (antibody, V domains shown)
VH: EVQLVESGGGLVQPGRSLRLSCAASGFTFDDYALHWVRQAPGKGLEWVSGINWEGDDIDYADSVKGRFTISRDNAKNSLYLQMNSLRVEDTALYYCAGNSRGYGGLDVWGQGTTVTVSS
VL: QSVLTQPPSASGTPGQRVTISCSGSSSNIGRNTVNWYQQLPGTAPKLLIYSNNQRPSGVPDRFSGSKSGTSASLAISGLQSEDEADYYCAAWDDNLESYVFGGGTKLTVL
With B1, the binding result in assay [1] was “no binding”. In addition, in assay [2], the binding result is recorded as “no binding”. In addition, in assay [3], the equilibrium dissociation constant (Kd) came to 0.3 nM, the koff stood at 1.6e-05 s⁻¹ and the kon amounted to 52000 M⁻¹ s⁻¹. Also, in assay [4], the Kd came to 0.42 nM, the koff was determined as 2.3e-05 s⁻¹ and the kon stood at 54000 M⁻¹ s⁻¹.

B2: MSL10-AM3 (antibody, V domains shown)
VH: EVQLVESGGGLVQPGRSLRLSCAASGFTFDDYALHWVRQAPGKGLEWVSGIGWDEDMIDYADSVKGRFTISRDNAKNSLYLQMNSLRVEDTALYYCAGNNRGYGGLDVWGQGTTVTVSS
VL: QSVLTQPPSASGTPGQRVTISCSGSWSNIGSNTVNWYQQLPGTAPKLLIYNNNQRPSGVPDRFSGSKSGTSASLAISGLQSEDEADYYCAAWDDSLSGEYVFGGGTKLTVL
As for B2, the binding result in assay [1] and in assay [2] was “no binding” each time. Also, the Kd turned out to be 0.9 nM in assay [3] and 1.3 nM in assay [4]. Also, the figures for the koff in assay [3] and in assay [4] were 7.6e-05 s⁻¹ and 0.0001 s⁻¹, respectively. The figures for the kon in assay [3] and in assay [4] were 84000 M⁻¹ s⁻¹ and 77000 M⁻¹ s⁻¹, respectively.

B3: MSL10-AM2.2 (antibody, V domains shown)
VH: EVQLVESGGGLVQPGRSLRLSCAASGFTFDDYALHWVRQAPGKGLEWVSGIGWEDDMIDYADSVKGRFTISRDNAKNSLYLQMNSLRVEDTALYYCAGNSRGYGGLDVWGQGTTVTVSS
VL: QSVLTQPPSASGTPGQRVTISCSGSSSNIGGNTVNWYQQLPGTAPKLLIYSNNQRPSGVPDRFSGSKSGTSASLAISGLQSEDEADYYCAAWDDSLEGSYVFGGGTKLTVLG
B3: the binding result in assay [1] is given as “no binding”. Besides, the binding result in assay [2] is reported as “no binding”. Moreover, in assay [3], the Kd amounted to 0.33 nM, the koff is 0.00011 s⁻¹ and the kon is 340000 M⁻¹ s⁻¹. In addition, in assay [4], the Kd was 0.11 nM, the koff came to 6.7e-05 s⁻¹ and the kon was 600000 M⁻¹ s⁻¹.

B4: MSL10-AM5 (antibody, V domains shown)
VH: EVQLVESGGGLVQPGRSLRLSCAASGFTFDDYALHWVRQAPGKGLEWVSGISWHGDFIDYADSVKGRFTISRDNAKNSLYLQMNSLRVEDTALYYCAGNNRGYGGLDVWGQGTTVTVSS
VL: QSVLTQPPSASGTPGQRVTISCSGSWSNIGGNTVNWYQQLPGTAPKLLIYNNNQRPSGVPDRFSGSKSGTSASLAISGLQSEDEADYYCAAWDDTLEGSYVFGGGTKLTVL
Turning to B4, the binding result in assay [1] and in assay [2] was “no binding” throughout. The Kd is 0.97 nM in assay [3] and 1.1 nM in assay [4]. Further, the koff in assay [3] came out at 7.4e-05 s⁻¹; in assay [4] it was 8.7e-05 s⁻¹. Moreover, the kon in assay [3] was 77000 M⁻¹ s⁻¹; in assay [4], 82000 M⁻¹ s⁻¹.

B5: MSL10-AM2 (antibody, V domains shown)
VH: EVQLVESGGGLVQPGRSLRLSCAASGFTFDDYALHWVRQAPGKGLEWVSGIGWEDDMIDYADSVKGRFTISRDNAKNSLYLQMNSLRVEDTALYYCAGNSRGYGGLDVWGQGTTVTVSS
VL: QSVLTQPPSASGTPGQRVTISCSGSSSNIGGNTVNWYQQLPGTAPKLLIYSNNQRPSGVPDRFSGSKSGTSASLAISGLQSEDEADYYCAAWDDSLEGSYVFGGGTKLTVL
Regarding B5, the binding result in assay [1] and in assay [2] was “no binding” throughout. In addition, the dissociation constant Kd in assay [3] worked out at 0.065 nM; in assay [4] it was 0.77 nM. Moreover, the koff in assay [3] was found to be 7.6e-06 s⁻¹; in assay [4], 8.8e-05 s⁻¹. In addition, the kon is 120000 M⁻¹ s⁻¹ in assay [3] and 110000 M⁻¹ s⁻¹ in assay [4].

B6: MSL10-AM4 (antibody, V domains shown)
VH: EVQLVESGGGLVQPGRSLRLSCAASGFTFEDYALHWVRQAPGKGLEWVSGIGWDDDMIDYADSVKGRFTISRDNAKNSLYLQMNSLRVEDTALYYCAGNNRGYGGLDVWGQGTTVTVSS
VL: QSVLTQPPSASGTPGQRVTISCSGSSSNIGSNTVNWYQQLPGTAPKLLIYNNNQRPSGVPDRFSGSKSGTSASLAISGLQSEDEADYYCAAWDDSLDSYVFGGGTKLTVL
Take B6: the binding result in assay [1] is “no binding”. Also, the binding result in assay [2] is given as “no binding”. For the same molecule, in assay [3], the equilibrium dissociation constant (Kd) is 5.3 nM, the koff amounted to 0.00073 s⁻¹ and the kon turned out to be 140000 M⁻¹ s⁻¹. Moreover, in assay [4], the Kd came to 5.6 nM, the koff is 0.00073 s⁻¹ and the kon is 130000 M⁻¹ s⁻¹.

B7: MSL10-AM10 (antibody, V domains shown)
VH: EVQLVESGGGLVQPGRSLRLSCAASGFTFSDYALHWVRQAPGKGLEWVSGISWYGDDIDYADSVKGRFTISRDNAKNSLYLQMNSLRVEDTALYYCAGNIRGYGGLDVWGQGTTVTVSS
VL: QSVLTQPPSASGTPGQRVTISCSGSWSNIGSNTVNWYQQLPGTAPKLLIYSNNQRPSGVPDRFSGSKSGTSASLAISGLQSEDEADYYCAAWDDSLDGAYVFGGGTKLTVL
On to B7, for which, in assay [1], the binding result is recorded as “no binding”. Also, the binding result in assay [2] was “no binding”. Also, in assay [3], the Kd amounted to 0.29 nM, the koff turned out to be 3.9e-05 s⁻¹ and the kon came to 130000 M⁻¹ s⁻¹.
